Assay [1] concerns the target human melanocortin-3 receptor (human) (UniProt P41968). Put plainly: competition with [125I]-NDP-alpha-MSH, CHO-K1 cell membranes.
Assay [2] concerns the target human melanocortin-4 receptor (human) (UniProt P32245). The assay is described as above.
In assay [3] the target is human melanocortin-5 receptor (human) (UniProt P33032). The assay is described as above.
Assay [4] has as its target human melanocortin-1 receptor (human) (UniProt Q01726). Described as above.
Assay [5] concerns the target human melanocortin-3 receptor (human) (UniProt P41968). Put plainly: cell-based or functional assay.
For assay [6], the target named is human melanocortin-4 receptor (human) (UniProt P32245). Put plainly: cell-based or functional assay.
human melanocortin-4 receptor (human), sequence (P32245 whole entry): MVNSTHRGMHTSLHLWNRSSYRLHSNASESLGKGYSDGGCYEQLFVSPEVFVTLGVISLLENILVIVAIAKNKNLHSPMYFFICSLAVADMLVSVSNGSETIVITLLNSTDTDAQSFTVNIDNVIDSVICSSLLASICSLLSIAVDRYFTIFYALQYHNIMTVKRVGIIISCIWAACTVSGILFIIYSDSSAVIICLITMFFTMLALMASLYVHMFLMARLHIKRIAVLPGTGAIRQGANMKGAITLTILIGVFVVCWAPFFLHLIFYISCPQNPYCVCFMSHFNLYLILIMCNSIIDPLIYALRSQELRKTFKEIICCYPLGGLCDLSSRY
Assay [7] addresses human melanocortin-5 receptor (human) (UniProt P33032). Put plainly: cell-based or functional assay.
For assay [8], the target named is human melanocortin-1 receptor (human) (UniProt Q01726). Put plainly: cell-based or functional assay.
human melanocortin-1 receptor (human), sequence (Q01726 whole entry): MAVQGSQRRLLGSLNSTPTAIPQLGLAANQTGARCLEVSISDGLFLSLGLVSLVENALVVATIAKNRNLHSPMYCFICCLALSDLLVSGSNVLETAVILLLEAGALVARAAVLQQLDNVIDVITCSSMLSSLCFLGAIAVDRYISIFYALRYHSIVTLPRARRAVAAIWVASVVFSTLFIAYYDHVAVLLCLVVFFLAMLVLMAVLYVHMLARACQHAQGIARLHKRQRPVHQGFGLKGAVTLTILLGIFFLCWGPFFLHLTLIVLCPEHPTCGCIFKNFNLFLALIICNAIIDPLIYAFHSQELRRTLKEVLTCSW

This is an account of results in patent publication US20210163536A1.

human melanocortin-5 receptor (human), sequence (P33032 whole entry): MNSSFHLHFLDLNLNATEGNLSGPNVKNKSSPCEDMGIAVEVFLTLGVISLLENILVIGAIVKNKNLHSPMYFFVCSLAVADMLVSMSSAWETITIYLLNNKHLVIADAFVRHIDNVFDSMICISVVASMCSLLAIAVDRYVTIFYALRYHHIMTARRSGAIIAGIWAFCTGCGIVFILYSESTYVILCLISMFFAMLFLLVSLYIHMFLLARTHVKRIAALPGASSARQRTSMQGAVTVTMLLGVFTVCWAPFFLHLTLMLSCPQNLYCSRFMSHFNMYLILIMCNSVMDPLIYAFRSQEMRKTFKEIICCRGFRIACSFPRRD
human melanocortin-3 receptor (human), sequence (P41968 whole entry): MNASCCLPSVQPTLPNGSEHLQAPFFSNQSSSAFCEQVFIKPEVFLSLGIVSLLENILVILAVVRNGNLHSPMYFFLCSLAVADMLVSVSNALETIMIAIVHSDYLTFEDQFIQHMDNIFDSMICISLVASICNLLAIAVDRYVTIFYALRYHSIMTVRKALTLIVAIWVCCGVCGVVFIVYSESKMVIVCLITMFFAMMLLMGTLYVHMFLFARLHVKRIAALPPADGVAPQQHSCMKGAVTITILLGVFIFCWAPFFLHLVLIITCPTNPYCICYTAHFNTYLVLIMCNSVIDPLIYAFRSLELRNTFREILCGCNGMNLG

Consider “cyclo[Hydantoin(C(O)-(Asp-A3c))-D-2-Nal-Arg-Trp-Lys]-NH2 (peptide)”, for which the inhibitory constant (Ki) in assay [1] stood at 1920 nM; in assay [2], 420 nM; in assay [3], 2880 nM; in assay [4], 7570 nM.

“Hydantoin(C(O)-(Nle-Gly))-cyclo(Cys-D-Ala-His-D-Phe-Arg-Trp-Pen)-NH2 (peptide)”: the Ki was determined as 3.53 nM in assay [2], 27.1 nM in assay [3] and 12.9 nM in assay [4].

Regarding “cyclo[Hydantoin(C(O)-(Glu-D-Ala))-His-D-Phe-Arg-Trp-Dap]-NH2 (peptide; unit assumed)”, the EC50, intracellular cyclic AMP (cAMP) levels in assay [5] is 18.2 nM; in assay [6], 0.182 nM; in assay [7], greater than 10000 nM; in assay [8], 56.7 nM.

Take “Hydantoin(C(O)-(D-Arg-Gly))-cyclo(Cys-Glu-His-D-Phe-Arg-Trp-Cys)-NH2 (peptide)”: the Ki is 124 nM in assay [1], 2.95 nM in assay [2], 2260 nM in assay [3] and 9.49 nM in assay [4].

For the substance “cyclo[Hydantoin(C(O)-(Asp-A5c))-D-2-Nal-Arg-Trp-Lys]-NH2 (peptide)”, the figures for the Ki in assay [1] and in assay [4] were 2390 nM and 9940 nM, respectively.

Turning to “cyclo[Hydantoin(C(O)-(Asp-D-Ala))-His-D-Phe-Arg-Trp-Orn]-NH2 (peptide)”, the Ki in assay [1] is 576 nM; in assay [2] it was 7.81 nM; in assay [3], 6400 nM; in assay [4], 37.7 nM. This substance also had an EC50, intracellular cyclic AMP (cAMP) levels in assay [5] of 88.6 nM.

Regarding “Hydantoin(C(O)-(Nle-Gly))-cyclo(Cys-D-Ala-His-D-Phe-Arg-Trp-Pen)-NH2 (peptide; unit assumed)”, the EC50, intracellular cyclic AMP (cAMP) levels in assay [5] was 21.5 nM; in assay [6] it was 0.584 nM; in assay [7], 352 nM; in assay [8] it was 17 nM.

In the case of “cyclo[Hydantoin(C(O)-(Asp-His))-D-2-Nal-Arg-Trp-Lys]-NH2 (peptide)”, the inhibition constant (Ki) in assay [4] is 200 nM.

Consider “cyclo[Hydantoin(C(O)-(Asp-Apc))-D-2-Nal-Arg-Trp-Lys]-NH2 (peptide)”, for which the Ki in assay [1] was determined as 2760 nM; in assay [2], 266 nM; in assay [4], 1280 nM.

Consider “cyclo[Hydantoin(C(O)-(Glu-D-Ala))-His-D-Phe-Arg-Trp-Dab]-NH2 (peptide)”, for which the inhibitory constant (Ki) is 90.5 nM in assay [1], 12.7 nM in assay [2], 877 nM in assay [3] and 28 nM in assay [4].

For “cyclo[Hydantoin(C(O)-(Glu-D-Ala))-His-D-Phe-Arg-Trp-Dap]-NH2 (peptide)”, the Ki in assay [1] stood at 863 nM; in assay [2], 4.97 nM; in assay [4], 16.4 nM.

In the case of “cyclo[Hydantoin(C(O)-(Asp-A6c))-D-2-Nal-Arg-Trp-Lys]-NH2 (peptide)”, the Ki in assay [1] was 1480 nM; in assay [2], 16.5 nM; in assay [3], 451 nM; in assay [4], 2170 nM.

As for “cyclo[Hydantoin(C(O)-(Asp-D-Ala))-His-D-Phe-Arg-Trp-Dap]-NH2 (peptide)”, the inhibition constant Ki in assay [1] is 1820 nM; in assay [2] it was 19.9 nM; in assay [4], 66.6 nM.

As to “Hydantoin(C(O)-(Gly-D-Arg))-cyclo(Cys-Glu-His-D-Phe-Arg-Trp-Cys)-NH2 (peptide; unit assumed)”, the EC50, intracellular cyclic AMP (cAMP) levels in assay [5] is 10.3 nM; in assay [6] it was 0.125 nM; in assay [7], 7440 nM; in assay [8], 12.9 nM.

In the case of “cyclo[Hydantoin(C(O)-(Asp-D-Ala))-His-D-Phe-Arg-Trp-Orn]-NH2 (peptide; unit assumed)”, the EC50, intracellular cyclic AMP (cAMP) levels in assay [6] stood at 4.5 nM; in assay [7], 9300 nM; in assay [8] it was 56.6 nM.

With “cyclo[Hydantoin(C(O)-(Glu-D-Ala))-His-D-Phe-Arg-Trp-Orn]-NH2 (peptide; unit assumed)”, the EC50, intracellular cyclic AMP (cAMP) levels in assay [5] worked out at 39.2 nM; in assay [6], 4.94 nM.

As for “cyclo[Hydantoin(C(O)-(Glu-D-Ala))-His-D-Phe-Arg-Trp-Orn]-NH2 (peptide)”, the Ki was determined as 2840 nM in assay [1], 52.4 nM in assay [2] and 60.4 nM in assay [4].

With “Hydantoin(C(O)-(Gly-D-Arg))-cyclo(Cys-Glu-His-D-Phe-Arg-Trp-Cys)-NH2 (peptide)”, the inhibitory constant (Ki) came out at 78 nM in assay [1], 1.77 nM in assay [2], 4540 nM in assay [3] and 4.3 nM in assay [4].

Turning to “Hydantoin(C(O)-(D-Arg-Gly))-cyclo(Cys-Glu-His-D-Phe-Arg-Trp-Cys)-NH2 (peptide; unit assumed)”, the EC50, intracellular cyclic AMP (cAMP) levels in assay [5] was found to be 17.1 nM; in assay [6], 0.16 nM; in assay [7] it was 2710 nM; in assay [8], 18 nM.

“cyclo[Hydantoin(C(O)-(Asp-D-Ala))-His-D-Phe-Arg-Trp-Dap]-NH2 (peptide; unit assumed)”: the EC50, intracellular cyclic AMP (cAMP) levels in assay [5] turned out to be 49.3 nM; in assay [6], 2.12 nM.

Turning to “cyclo[Hydantoin(C(O)-(Asp-Aic))-D-2-Nal-Arg-Trp-Lys]-NH2 (peptide)”, the inhibition constant Ki in assay [1] worked out at 2630 nM; in assay [2], 35.8 nM; in assay [3], 1160 nM; in assay [4], 9030 nM.
